The target in data set [1] is T1, AR-DBD (EMSA) (UniProt P10275 556-629). Kind of data set: EMSA; 100 fmol probe, AR-DBD titration, poly(dI-dC); BLI: 20 mM Tris pH 8, 150 mM NaCl, 5% glycerol, 2 mM DTT, 0.1 mM PMSF, temperature not stated; EMSA: 10 mM Tris pH 7.5, 50 mM KCl, DTT (1 mM); 2.5 mM with 0.25%. The note with it: protein: recombinant, chain copies: 2, blunt.
Data set [2] deals with T1, AR-DBD (EMSA). Kind of data set: competition; 20 nmol unlabeled competitor (so in the source) vs labeled TMPRSS2-ARE; BLI: 20 mM Tris pH 8, 150 mM NaCl, 5% glycerol, 2 mM DTT, 0.1 mM PMSF, temperature not stated; EMSA: 10 mM Tris pH 7.5, 50 mM KCl, DTT (1 mM); 2.5 mM with 0.25%. As to conditions: protein: recombinant; chain copies: 2; blunt.

T1 sequence (P10275 556-629): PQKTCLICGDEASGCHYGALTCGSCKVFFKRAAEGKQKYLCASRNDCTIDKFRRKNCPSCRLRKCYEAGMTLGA

B1: PSA-ARE (EMSA probe) (dsDNA)
DNA 1: TACAAATAGGTTCTTGGAGTACTTTACTAGGCATGGACAATG
DNA 2: CATTGTCCATGCCTAGTAAAGTACTCCAAGAACCTATTTGTA
B1: the binding result with AR-DBD (EMSA) [1] (label: 5' IRD700 on strand 1) was “binds”.

B2: CHST11-ARE (EMSA probe) (dsDNA)
DNA 1: AGATGCCCCAGTGTTCTAG
DNA 2: CTAGAACACTGGGGCATCT
For the molecule B2, the binding result with AR-DBD (EMSA) [1] was “binds”.

B3: CHST11-ARE (unlabeled competitor) (dsDNA)
DNA 1: AGATGCCCCAGTGTTCTAG
DNA 2: CTAGAACACTGGGGCATCT
In the case of B3, the binding result with AR-DBD (EMSA) [2] is recorded as “binds”.

Values taken from article PMC9376089, “Reformation of the chondroitin sulfate glycocalyx enables progression of AR-independent prostate cancer”.
